Measured values from the nanobody polyreactivity screen of Harvey et al. (2022).

Assay: yeast display, Sf9 membrane polyspecificity reagent, FACS + sequencing; frameworks hold sequencing errors
How it was run: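 In a synthetic yeast display library (Saccharomyces cerevisiae BJ5465), nanobody expression was induced with galactose for 36–48 hours. FACS gates were set low and high (top ~1%) using anti-HA fluorescence for expression and streptavidin fluorescence for binding of the Sf9 membrane reagent. Each polyreactivity label is drawn from the gate of origin.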

Sequence | polyreactivity (PSR sort gate)
QVQLVESGGGLVQAGGSLRLSCAASGRIFRANTMGWYRQAPGKERELVAVITASGGSTYYADSVKGRFTISRDNAKNTVYLQMNSLKPEDTAVYYCNRVPRTRLSGHDYWGQGTQVTVSS | high polyreactivity
QVQLVESGGGLVQAGGSLRLSCAASGRIFRAYAMGWYRQAPGKERELVAAITSGVSTNYADSVKGRFTISRDNAKNTVYLQMNSLKPEDTAVYYCAVLGKRNAYYYWGQGTQVTVSS | low polyreactivity
QVQLVESGGGLVQAGGSLRLSCAASGRIFRAYAMGWYRQAPGKERELVASITGSGGSTYYADSVKGRFTISRDNAKNTVYFQMNILKPEDTAVYYCAVASYRVWGVGTRYYYWGQGTHVTVSS | high polyreactivity
QVQLVESGGGLVQAGGSLRLSCAASGRIFRAYTMGWYRPAPGKERELVAAISTRSGRTYYADSVKGRFTISRDKEKNTVYLQMNSLKPEDTAVYYCAADRSGSAWYGYWGQGTQVTVSS | high polyreactivity
QVQLVESGGGLVQAGGSLRLSCAASGRIFRDYVMGWYRQAPGKERELVAAITQRGGSTYYADSVKGRFTISRDNAKNTVYLQLNSLKPEDTAVYYCNARWYRYGTGGVGYGGYDYWGQGTQVTVSS | low polyreactivity
QVQLVESGGGLVQAGGSLRLSCAASGRIFRENAMGWYRQAPGKERELVAAINRSGSRTYYADSVKGRFTISRDNAKNTVYLQMNSLKPEDTAVYYCATASSIRYDYWGQGTQVTVSS | high polyreactivity
QVQLVESGGGLVQAGGSLRLSCAASGRIFRGNAMGWYRQAPGKERELVARITGNDGDTYYADSVKGRFTISRDNAKNTVYLQMNSLKPEDTAVYYCATDTSSYRRRYYYWGQGTQVTVSS | low polyreactivity
QVQLVESGGGLVQAGGSLRLSCAASGRIFRGNAMGWYRQVPGKERELVAAISSGTRTTYADSVKGRFTISRDNAKNTVYLQMNSLKPEDTAVYYCAARTSNYPRWRVGGYSYDYWGQGTQVTVSS | high polyreactivity
QVQLVESGGGLVQAGGSLRLSCAASGRIFRGNAMGWYRQVPGKERELVAAISSGTRTTYADSVKGRFTISRDNAKNTVYLQMNSLKPEDTAVYYCAAYNSYLGYPYYYWGQGTQVTVSS | high polyreactivity
QVQLVESGGGLVQAGGSLRLSCAASGRIFRGYAMGWYRQAPGKERELVATISAIGGSTYADSVKGRFTISRDNAKNTVYLQMNSLKPEDTAVYYCNVRKVYRYQYRFEYWGQGTQVTVSS | high polyreactivity
QVQLVESGGGLVQAGGSLRLSCAASGRIFRGYAMGWYRQAPGKERELVAVISYSGTRTYYADSVKGRFTISRDNAKNTVYLQMNSLKPEDTAVYYCNARANGFKDGYWGQGTQVTVSS | high polyreactivity
QVQLVESGGGLVQAGGSLRLSCAASGRIFRGYAMGWYRQAPGTERELVAAISRRGGSTYYAASVKGRFTISRDNAKNTVYLQNNSLKPEDTAVYYCNADGVHYVAYAGGYWGQGTQVTVSS | high polyreactivity
QVQLVESGGGLVQAGGSLRLSCAASGRIFRGYVMGWYRQAPGKERELVAVITSGGRTYYADSVKGRFTISRDNAKNTVYLQMNSHKPEDTAVYYCATYPRYKPYYYWGQGTQVTVSS | low polyreactivity
QVQLVESGGGLVQAGGSLRLSCAASGRIFRHNTMGWYLQAPGKERELVAAIRYSGGRTYYADSVKGRFTLSRDTAKNTFYLQMNSLKPEDTAVYYCAATYFAAVYSSWYWFDYWGQGTQVTVSS | high polyreactivity
QVQLVESGGGLVQAGGSLRLSCAASGRIFRHNTMGWYRQAPGNESELVAGITASGGDTYYADSVTGRFTISRDNAKNTVYLQMNSLNPEDTAVYDCATSQYGYRSWPGLYYWGQGTQVTVSS | low polyreactivity
QVQLVESGGGLVQAGGSLRLSCAASGRIFRINAMGWYRQAPGKERELVATISSGGGSTYADSVKGRFTISRDNAKTTVYLQMNSLKPEDTAVYYCAARSRIGRYTYDYWGQGTQVTVSS | high polyreactivity
QVQLVESGGGLVQAGGSLRLSCAASGRIFRINAMGWYRQAPGKERELVATITSGGRTKYADSVKGRFTISRDNAKNTVYLQMNSLKPEDTAVYYCAADWRVRVRQHIPDKYDYWGQGTQVTVSS | low polyreactivity
